Assay results as given in patent US20230257435A1, “Wound Healing Composition and Uses Thereof” (AGENCY FOR SCIENCE, TECHNOLOGY AND RESEARCH, priority 2020, published 2023).

Legend:
BJ and HaCaT cells = experiment: Transwell migration assay; assay type: cell-based, human; conditions: sAgrin 10 μg/ml as chemoattractant
Procedure: FIG. 5 are assays showing effects of Agrin knockdown on 2D migration of keratinocytes and dermal fibroblasts. (a) RT-PCR analysis for Agrin gene expression in BJ and HaCaT cells treated with either control or Agrin siRNA. Data presented as mean+/−s.d. These knockdown cells were subsequently used for transwell migration assays. Migration was analyzed for a batch of Agrin depleted cells in response to sAgrin (10 μg/ml) in the bottom chambers as a chemoattractant (third panels). Migrating were quantified using ImageJ and represented as mean+/−s.d. (n=3, Students ‘t’ test, p=0.0004, 0.0003, and 0.0005, respectively). Scale bar: 20 μm. (b) Control, Agrin depleted, and Agrin knockdown BJ or primary mouse dermal fibroblasts (DF) cells pre-treated with 10 μg/ml sAgrin for 18 h were subjected to scratch wound assays. Representative bright-field images showing relative migration are presented at the indicated time-points. The mean non-migrated area+/−s.d. was quantified using ImageJ (n=3, Students ‘t’ test, *p<0.05, **p<0.004, ***p<0.0005, ****p=0.000002, ****p<0.000001, respectively). Scale bar: 20 μm. A Western blot verifying the knockdown of Agrin in DF is also shown with GAPDH as loading control. […] Results are quantified as in panel (b) (n=3, Students ‘t’ test, ****p<0.000001, **p<0.005, *p<0.05, respectively, all other p values are represented in the panels). […]

mouse skin punch wounds = experiment: Punch-biopsy wound healing model, non-splinted; assay type: in vivo
Procedure: Six to eight to week old female experimental ICR (nomenclature: IcrTac:ICR) mice purchased from InVivos were used for punch-biopsy wound healing in vivo assays. In the ex-vivo mouse skin explant assay, random ratios of male and female new born ICR mouse pups were used. Wherever possible, the experiments were performed taking into consideration an ethical and reductionist approach of animal usage. Animal studies were not performed in a blinded fashion. The animals were randomly assigned to different experimental groups. The number of animals used for each experiment is indicated in the legend as n=x mice per group. All animal experiments performed were done in accordance with experimental protocols reviewed by the Biological Resource Center (BRC), Agency for Science Technology and Research (A*STAR) under strict compliance to the Institutional Animal Care and Use Committee (IACUC) guidelines for ethical use of animal models in biological research.
The mice were housed under standard conditions of 21° C. and a 12 h light-dark cycle with free access to food. Subsequently, the mice were intraperitoneally (i.p.) anesthezised using Ketamine 100 mg/kg and Xylazin 10 mg/kg diluted in […] of saline solution. The fur was shaved from the base of the neck towards the back on the entire shoulder region. The skin was wiped with an alcohol swab and 10% povidone-iodine (Betadine) antiseptic solution. Circular symmetrical 4 mm wounds were inflicted on either side of the midline in the shoulder region using a sterile 4 mm punch biopsy needle (Integra Miltex, Integra York, P.A., Inc.). The wound skin was carefully removed using a scalpel and a pair of scissors to generate a full-thickness wound that were left open for topical administrations during the analysed time periods. For splinted wound healing models, a 10 mm transparent donut shaped nylon sheet (Grace Bio-Laboratories, Bend, Oreg.) was placed around the 4 mm wound. The splint was placed with the wound at the center, glued to the skin by adhesive (Krazy Glue®; Elmer's Inc.), and covered by Tegaderm dressing. The wounds were treated with different formulations based on either petroleum jelly (Vaseline), a thermoresponsive hydrogel (Pluronic F127-Sigma) or a commercially available skin ointment (Aquaphore-Beiersdorf, Inc.). For Vaseline based ointment cream preparation, 10 mg per cm^2 vaseline ointment was mixed with filtered PBS solutions containing the indicated amounts of Agrin (100 μg, 200 μg or 500 μg) and 100 μg BSA (w/w) were used and applied topically every two days. For siRNA mediated knockdown experiments, 75 nM of indicated siRNAs were incubated with lipofectamine in PBS. Subsequently, a 1:1 mixture of PBS (containing the siRNAs): Aquaphore was applied topically on the wound region every two days. A topical formulation comprising of 20% (w/w) Pluronic F127 (Sigma) was used to dissolve in sterile and 0.22μ filtered solution containing a final concentration of 200 μg/ml sAgrin or BSA. This mixture was dissolved overnight at 4° C. to ensure that liquid phase is achieved. The mixture forms a homogenous gel at temperatures above ˜20° C. and was dispersed topically to cover the wound. Wound closure was assessed using a Vernier caliper every alternate day. For both models, the animals were caged individually throughout the observed time-points of healing at the institutional animal facility. All wound healing animal experiments performed were done in accordance with experimental protocols reviewed by the Biological Resource Center (BRC), Agency for Science Technology and Research (A*STAR) under strict compliance to the Institutional Animal Care and Use Committee (IACUC) guidelines for ethical use of animal models in biological research.
Human skin equivalents and mice skin tissues were harvested, embedded, and subjected to routine histology using Hematoxylin and Eosin. For immunostaining, the tissues were fixed for 24 h in 10% neutral buffered formalin solution. […]

B1: sAgrin: C-terminus recombinant Agrin fragment containing 8 amino acid 'Z8' insert and LG3 domain (SEQ ID NO: 7), His-tagged, expressed in E. coli (protein)
chain: DTLAFDGRTFVEYLNAVTESELANEIPVEKALQSNHFELSLRTEATQGLVLWSGKATERADYVALAIVDGHLQLSYNLGSQPVVLRSTVPVNTNRWLRVVAHREQREGSLQVGNEAPVTGSSPLGATQLDTDGALWLGGLPELPVGPALPKAYGTGFVGCLRDVVVGRHPLHLLEDAVTKPELRPCPTP
modifications: His tag
BJ and HaCaT cells
  trans-well migration (rescue of Agrin knockdown): in part, rescued
Mouse skin punch wounds; day 2
  migratory epithelial tongue from wound edges: significant extension of the migratory epithelial tongue
Mouse skin punch wounds; day 2, wound edges and beds
  K17 outgrowth, MMP12 expression and pMLC activation: robust K17 expressing keratinocyte outgrowth, MMP12 expression and pMLC activation
Mouse skin punch wounds; day 6
  angiogenesis (blood vessel number and diameter): steady enhancement in angiogenesis with an increased number of blood vessels and their respective diameters
Mouse skin punch wounds; day 7 post-injury
  Ki67+ve proliferating cells: enhancement of Ki67+ve proliferating cells
Mouse skin punch wounds; sAgrin 200 μg vs control hydrogel
  rates of wound healing, Pluronic F-127 hydrogel: significantly boosted the rates of wound healing in vivo
Mouse skin punch wounds; sAgrin 100, 200 or 500 μg in Vaseline vs BSA
  healing rates of punch wounds, Vaseline ointment: significantly accelerated the healing rates of mice punch wounds in a dose-dependent fashion
